This is an account of results in patent US20250179142A1 (SUNSHINE LAKE PHARMA, published 2025).

Data set [1] deals with the molecule itself. As to the kind of experiment: SEC (size exclusion HPLC), self-association of the Fc into a homodimer. As for the experimental part:
(§1) In this example, the effects of introducing different mutations on the structural properties of Fc were tested, and the test results of some mutants are shown in Table 5. Test steps include:
(§2) Molecular cloning method was used to insert Fc nucleic acid sequence into mammalian cell expression vector, and ExpiCHO Fectamine™ CHO Transfection Kit (ThermoFisher Scientific) was used for transient transfection and expression in CHO-S cells; after purification by Protein A column, the target protein was obtained, and the target protein was analyzed by size exclusion high performance liquid chromatography (SEC). The main principle of SEC analysis is based on the molecular weight and three-dimensional structure of the analyte (such as protein). Generally, analytes with larger molecular weights will pass through the chromatographic column more quickly, so they have a shorter column retention time. On the contrary, analytes with smaller molecular weights have longer retention times. So SEC can be used to analyze the aggregation of protein molecules.

Data set [2] concerns the molecule itself. Put plainly: SEC (size exclusion HPLC), self-association of the Fc. As for the experimental part:
as §1, §2
On the technique in general: Size exclusion chromatography separates by hydrodynamic size, large species first.

Data set [3] addresses glucagon-like peptide-1 receptor (UniProt P43220 24-463, limits assumed). Put plainly: cell-based or functional assay.

B1: IgG4 Fc (AA, K439E) (other)
chain: EAAGGPSVFLFPPKPKDTLMISRTPEVTCVVVDVSQEDPEVQFNWYVDGVEVHNAKTKPREEQFNSTYRVVSVLTVLHQDWLNGKEYKCKVSNKGLPSSIEKTISKAKGQPREPQVYTLPPSQEEMTKNQVSLTCLVKGFYPSDIAVEWESNGQPENNYKTTPPVLDSDGSFFLYSRLTVDKSRWQEGNVFSCSVMHEALHNHYTQESLSLSLG
As for B1, the binding result in data set [1] is recorded as “binds”.

B2: IgG4 Fc (AA, K439D) (other)
chain: EAAGGPSVFLFPPKPKDTLMISRTPEVTCVVVDVSQEDPEVQFNWYVDGVEVHNAKTKPREEQFNSTYRVVSVLTVLHQDWLNGKEYKCKVSNKGLPSSIEKTISKAKGQPREPQVYTLPPSQEEMTKNQVSLTCLVKGFYPSDIAVEWESNGQPENNYKTTPPVLDSDGSFFLYSRLTVDKSRWQEGNVFSCSVMHEALHNHYTQDSLSLSLG
On to B2, for which the binding result in data set [1] is listed as “binds”.

B3: IgG4 Fc (AA, F405Q/Y407E) (other)
chain: EAAGGPSVFLFPPKPKDTLMISRTPEVTCVVVDVSQEDPEVQFNWYVDGVEVHNAKTKPREEQFNSTYRVVSVLTVLHQDWLNGKEYKCKVSNKGLPSSIEKTISKAKGQPREPQVYTLPPSQEEMTKNQVSLTCLVKGFYPSDIAVEWESNGQPENNYKTTPPVLDSDGSFQLESRLTVDKSRWQEGNVFSCSVMHEALHNHYTQKSLSLSLG
As to B3, the binding result in data set [2] is “no binding”.

B4: GLP-1-Fc-GDF15 fusion protein D8 (Fc fusion)
chain: HGEGTFTSDVSSYLEEQAAKEFIAWLVKGGGGGGGSGGGGSGGGGSAPEAAGGPSVFLFPPKPKDTLMISRTPEVTCVVVDVSQEDPEVQFNWYVDGVEVHNAKTKPREEQFNSTYRVVSVLTVLHQDWLNGKEYKCKVSNKGLPSSIEKTISKAKGQPREPQVYTLPPSQEEMTKNQVSLTCLVKGFYPSDIAVEWESNGQPENNYKTTPPVLDSDGSFFLYSRLTVDKSRWQEGNVFSCSVMHEALHNHYTQESLSLSLGGGGGSGGGGSAPAPAPAPAPAPAPAPAPAPGGGGSGGGGSDHCPLGPGRCCRLHTVRASLEDLGWADWVLSPREVQVTMCIGACPSQFRAANMHAQIKTSLHRLKPDTVPAPCCVPASYNPMVLIQKTDTGVSLQTYDDLLAKDCHCI
For B4, the “GLP-1 activity (EC50, nM): intracellular cAMP in HEK293 cells with high GLP-1R expression” value (“GLP-1 activity (EC50, nM)” below) in data set [3] was determined as 0.084 nM.

B5: GLP-1-Fc-GDF15 fusion protein D9 (Fc fusion)
chain: HGEGTFTSDVSSYLEEQAAKEFIAWLVKGGGGGGGSGGGGSGGGGSAPEAAGGPSVFLFPPKPKDTLMISRTPEVTCVVVDVSQEDPEVQFNWYVDGVEVHNAKTKPREEQFNSTYRVVSVLTVLHQDWLNGKEYKCKVSNKGLPSSIEKTISKAKGQPREPQVYTLPPSQEEMTKNQVSLTCLVKGFYPSDIAVEWESNGQPENNYKTTPPVLDSDGSFFLYSRLTVDKSRWQEGNVFSCSVMHEALHNHYTQQSLSLSLGGGGGSGGGGSAPAPAPAPAPAPAPAPAPAPGGGGSGGGGSDHCPLGPGRCCRLHTVRASLEDLGWADWVLSPREVQVTMCIGACPSQFRAANMHAQIKTSLHRLKPDTVPAPCCVPASYNPMVLIQKTDTGVSLQTYDDLLAKDCHCI
B5: the “GLP-1 activity (EC50, nM)” value in data set [3] amounted to 0.1 nM.

B6: GLP-1-Fc-GDF15 fusion protein D11 (Fc fusion)
chain: HGEGTFTSDVSSYLEEQAAKEFIAWLVKGGGGGGGSGGGGSGGGGSEAAGGPSVFLFPPKPKDTLMISRTPEVTCVVVDVSQEDPEVQFNWYVDGVEVHNAKTKPREEQFNSTYRVVSVLTVLHQDWLNGKEYKCKVSNKGLPSSIEKTISKAKGQPREPQVYTLPPSQEEMTKNQVSLTCLVKGFYPSDIAVEWESNGQPENNYKTTPPVLDSDGSFFLYSRLTVDKSRWQEGNVFSCSVMHEALHNHYTQESLSLSLGGGGGSGGGGSAPAPAPAPAPAPAPAPAPAPGGGGSGGGGSDHCPLGPGRCCRLHTVRASLEDLGWADWVLSPREVQVTMCIGACPSQFRAANMHAQIKTSLHRLKPDTVPAPCCVPASYNPMVLIQKTDTGVSLQTYDDLLAKDCHCI
Consider B6, for which the “GLP-1 activity (EC50, nM)” value in data set [3] was 0.118 nM.

B7: GLP-1-Fc-GDF15 fusion protein D14 (Fc fusion)
chain: HGEGTFTSDVSSYLEEQAAKEFVQWLVKGGGGGGGSGGGGSGGGGSEAAGGPSVFLFPPKPKDTLMISRTPEVTCVVVDVSQEDPEVQFNWYVDGVEVHNAKTKPREEQFNSTYRVVSVLTVLHQDWLNGKEYKCKVSNKGLPSSIEKTISKAKGQPREPQVYTLPPSQEEMTKNQVSLTCLVKGFYPSDIAVEWESNGQPENNYKTTPPVLDSDGSFFLYSRLTVDKSRWQEGNVFSCSVMHEALHNHYTQESLSLSLGGGGGSGGGGSAPAPAPAPAPAPAPAPAPAPGGGGSGGGGSDHCPLGPGRCCRLHTVRASLEDLGWADWVLSPREVQVTMCIGACPSQFRAANMHAQIKTSLHRLKPDTVPAPCCVPASYNPMVLIQKTDTGVSLQTYDDLLAKDCHCI
For the molecule B7, in data set [3], the “GLP-1 activity (EC50, nM)” value turned out to be 0.183 nM.

B8: GLP-1-Fc-GDF15 fusion protein D13 (Fc fusion)
chain: HGEGTFTSDVSSYLEEQAAKEFIQWLVKGGGGGGGSGGGGSGGGGSEAAGGPSVFLFPPKPKDTLMISRTPEVTCVVVDVSQEDPEVQFNWYVDGVEVHNAKTKPREEQFNSTYRVVSVLTVLHQDWLNGKEYKCKVSNKGLPSSIEKTISKAKGQPREPQVYTLPPSQEEMTKNQVSLTCLVKGFYPSDIAVEWESNGQPENNYKTTPPVLDSDGSFFLYSRLTVDKSRWQEGNVFSCSVMHEALHNHYTQESLSLSLGGGGGSGGGGSAPAPAPAPAPAPAPAPAPAPGGGGSGGGGSDHCPLGPGRCCRLHTVRASLEDLGWADWVLSPREVQVTMCIGACPSQFRAANMHAQIKTSLHRLKPDTVPAPCCVPASYNPMVLIQKTDTGVSLQTYDDLLAKDCHCI
For the molecule B8, the “GLP-1 activity (EC50, nM)” value in data set [3] worked out at 0.124 nM.
